The values below come from patent US20140175018A1.

Bridge positions count the residues as written; N and C are the ends. Side chains are listed from the residue outwards. * marks the point of attachment. Biotin = O=C1N[C@H]2[C@H](CS[C@H]2CCCCC(=O)*)N1; PEG = not defined here

What all share (experiment): cell-based or functional assay
In assay [1] the target is chemokine (C-X-C motif) receptor 3 (CXCR3) (human) (UniProt P49682).
Assay [2] deals with T1, chemokine (C-C motif) receptor 10 (CCR10) (human) (UniProt P46092).
T1 sequence (looked up): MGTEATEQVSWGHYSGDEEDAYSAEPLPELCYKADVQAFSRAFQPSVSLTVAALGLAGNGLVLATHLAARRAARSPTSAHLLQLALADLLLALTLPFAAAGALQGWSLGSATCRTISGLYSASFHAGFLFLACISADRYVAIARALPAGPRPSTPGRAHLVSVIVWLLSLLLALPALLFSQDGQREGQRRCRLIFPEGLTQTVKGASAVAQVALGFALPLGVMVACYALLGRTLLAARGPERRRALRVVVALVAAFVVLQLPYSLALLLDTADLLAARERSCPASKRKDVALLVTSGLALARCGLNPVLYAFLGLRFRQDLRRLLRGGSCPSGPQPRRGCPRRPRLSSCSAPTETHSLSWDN

Assay [3] addresses T2, chemokine (C-C motif) receptor 4 (CCR4) (human) (UniProt P51679).
T2 sequence (looked up): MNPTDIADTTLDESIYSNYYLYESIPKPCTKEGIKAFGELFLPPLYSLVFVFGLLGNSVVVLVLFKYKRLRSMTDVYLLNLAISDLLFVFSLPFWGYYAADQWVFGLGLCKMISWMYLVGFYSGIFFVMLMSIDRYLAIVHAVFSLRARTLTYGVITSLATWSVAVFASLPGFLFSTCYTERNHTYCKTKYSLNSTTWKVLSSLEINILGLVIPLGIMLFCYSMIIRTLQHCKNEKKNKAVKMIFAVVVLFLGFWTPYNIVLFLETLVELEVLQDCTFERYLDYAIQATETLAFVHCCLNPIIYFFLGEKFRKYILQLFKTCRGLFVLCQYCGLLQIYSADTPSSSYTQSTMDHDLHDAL

Sequence of chemokine (C-X-C motif) receptor 3 (CXCR3) (human) (P49682 whole entry): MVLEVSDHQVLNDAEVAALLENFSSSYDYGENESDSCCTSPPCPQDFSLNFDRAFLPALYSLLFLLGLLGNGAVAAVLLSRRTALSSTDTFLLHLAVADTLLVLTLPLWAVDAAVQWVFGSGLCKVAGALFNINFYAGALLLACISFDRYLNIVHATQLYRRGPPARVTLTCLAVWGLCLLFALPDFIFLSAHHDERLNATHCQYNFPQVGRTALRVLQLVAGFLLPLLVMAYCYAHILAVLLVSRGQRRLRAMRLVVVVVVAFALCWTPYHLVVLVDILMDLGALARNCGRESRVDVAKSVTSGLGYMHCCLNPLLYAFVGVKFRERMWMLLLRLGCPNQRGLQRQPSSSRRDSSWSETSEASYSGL

B1: biotinITAC (CXCL11): ITAC derivatised with Biotin at an additional C-terminal Lysine after a PEG spacer (ligand)
chain: FPMFKRGRCLCIGPGVKAVKVADIEKASIMYPSNNCDKIEVIITLKENKGQRCLNPKSKQARLIIKKVERKNFX
modifications: X74 = PEG-K(Biotin)
As to B1, in assay [1], the EC50 (agonist activity, Aequorin assay) was determined as 15.7 nM.

B2: recombinant native CTAC (ligand, UniProt Q9Y4X3 25-112, looked up)
chain: FLLPPSTACCTQLYRKPLSDKLLRKVIQVELQEADGDCHLQAFVLHLAQRSICIHPQNPSLSQWFEHQERKLHGTLPKLNFGMLRKMG
Turning to B2, the EC50 (agonist activity, Aequorin assay) in assay [2] is 33.5 nM.

B3: recombinant native MDC (ligand, UniProt O00626 25-93, looked up)
chain: GPYGANMEDSVCCRDYVRYRLPLRVVKHFYWTSDSCPRPGVVLLTFRDKEICADPRVPWVKMILNKLSQ
The molecule B3 came in with an EC50 (agonist activity, Aequorin assay) in assay [3] of 3.6 nM.

B4: biotinCTAC (CCL27): CTAC derivatised at Lys(87) with PEG-Biotin (ligand)
chain: FLLPPSTACCTQLYRKPLSDKLLRKVIQVELQEADGDCHLQAFVLHLAQRSICIHPQNPSLSQWFEHQERKLHGTLPKLNFGMLRKK([PEG-Biotin])G-OH
modifications: disulfide 10-53, 9-38; reading uncertain
In turn, B4 yielded an EC50 (agonist activity, Aequorin assay) in assay [2] of 49.4 nM.

B5: recombinant native ITAC (ligand, UniProt O14625 22-94, looked up)
chain: FPMFKRGRCLCIGPGVKAVKVADIEKASIMYPSNNCDKIEVIITLKENKGQRCLNPKSKQARLIIKKVERKNF
B5 returned an EC50 (agonist activity, Aequorin assay) in assay [1] of 0.7 nM.
